The source of these data is article PMC6527014.

pKd: −log10 of the molar value.

The target of test [1] is recombinant SCM (Streptococcus canis M protein), mature wild type (Streptococcus canis (strain G361)). Description: SPR.
The target of test [2] is SCM on the surface of S. canis strain G361 (Streptococcus canis (endogenous in strain G361)). Nature of the test: radioligand binding; inhibition: S. canis G361 with iodinated full-length SCM after pre-incubation with non-iodinated SCM, N-225 or C-226 (5 µg in the text, 1 µM in the legend).
For test [3] the target is unchanged. Description: radioligand binding; iodinated protein (chloramine T) incubated with whole bacteria; percentage binding of totally used iodinated protein.

Consider SCM fragment N-225, for which the negative logarithm of the Kd (pKd) (usually −log10 of the Kd, conventionally taken in molar units) in test [1] (domain or fragment) is 7.23.
In the case of SCM fragment N-225 (domain or fragment), the percent of iodinated SCM bound to G361 with the unlabelled competitor in test [2] turned out to be 6.8%.
Consider “recombinant SCM (Streptococcus canis M protein), mature wild type”, for which, in test [1] (natural protein), the pKd is 5.39.
For “recombinant SCM (Streptococcus canis M protein), mature wild type (natural protein)”, in test [3], the percent of the iodinated protein bound came to 24.1%. This substance also had a percent of iodinated SCM bound to G361 with the unlabelled competitor in test [2] of 4.4%.
